{"source": "patent US9546211B2", "about": "(SINGH MOLECULAR MEDICINE, LLC, priority 2014, dated 2017)", "key": {"TNF-alpha": {"biological_target": "TNF-alpha (Homo sapiens, UniProt P01375)", "sequence (P01375 77-233 limits assumed)": "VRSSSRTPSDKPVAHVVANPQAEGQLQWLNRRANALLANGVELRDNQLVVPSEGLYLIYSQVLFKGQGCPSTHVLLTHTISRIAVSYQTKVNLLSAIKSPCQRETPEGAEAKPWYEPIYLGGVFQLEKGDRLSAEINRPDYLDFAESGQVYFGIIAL", "test": "Inhibition of TNF-alpha cytotoxicity against U937 cells", "format": "cell-based", "conditions": "constant dose of TNF-alpha at EC50"}, "MDA-MB-231 cells": {"system": "MDA-MB-231 cells", "test": "MTT proliferation assay, MDA-MB-231;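 as to all read-outs here: human cancer cells grown to 90% confluence before treatment, treated groups compared against a vehicle control group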", "format": "cell-based, human", "conditions": "for Mean Absorbance (570 nM) ± S.E., Overall Mean: 4 experiments"}, "PANC-1 cells": {"system": "PANC-1 cells", "test": "MTT proliferation assay, PANC-1", "format": "cell-based, human", "conditions": "for Mean Absorbance (570 nM) ± S.E., Overall Mean: 3 experiments; for Mean Absorbance (570 nM) ± S.E.: single experiments"}, "[1]": {"conditions": "MDA-MB-231, day 3, 10.0 μg/ml, single experiments"}, "[2]": {"conditions": "MDA-MB-231, day 3, 100 μg/ml, single experiments"}, "[3]": {"conditions": "MDA-MB-231, day 3 post treatment, 0.5 μg/ml"}}, "note": "“And” between values parts separate entries of the source, which are not always exact repeats. Equal entries are not always repeated.", "data": [{"molecule": "anti-TNF-alpha VHH62: anti-TNF-alpha sdAb, SEQ ID NO. 47 (TNF_62, SEQ ID NO. 66) (protein, Camelid) VHH: QVQLVESGGGPVQAGETLRLSCTASGFTFAEADMGWYRQAPGHECELVSTITTEGITSEASSYYADSVRGRFTISRDNAKNMVYLQMNSLKPEDTAVYYCAPDPYAYSTYSDYCSWAQGTQGTLVTVSS", "values": [{"measurement": "inhibition of killing of U937 by TNF-alpha", "setting": "TNF-alpha", "result": "inhibit killing"}]}, {"molecule": "B.VHH14: anti-STAT3 single-domain antibody VHH14, SEQ ID NO. 4, bacterial production (protein, Camelid, 4, bacterial production) VHH: QVQLVESGGGSVQAGGSLRLSCVASTYTGCMGWFRQAPGKEREGVAALSSRGFAGHYTDSVKGRFSISRDYVKNAVYLQMNTVKPEDAAMYYCAAREGWECGETWLDRTAGGHTYWGQGTLVTVSS", "values": [{"measurement": "% Inhibition", "setting": "MDA-MB-231 cells; MDA-MB-231, 3 days, 10.0 μg/ml, single experiments", "result": "23.1% and 20.0% and 38.5% and 23.3%"}, {"measurement": "% Inhibition", "setting": "MDA-MB-231 cells; MDA-MB-231, 3 days, 100 μg/ml, single experiments", "result": "57.0% and 42.8% and 62.3% and 60.6%"}, {"measurement": "% Inhibition", "setting": "MDA-MB-231 cells; MDA-MB-231, 5 days, 0.5 μg/ml", "result": 0, "unit": "%"}, {"measurement": "% Inhibition", "setting": "MDA-MB-231 cells; MDA-MB-231, 5 days, 1.0 μg/ml", "result": 0, "unit": "%"}, {"measurement": "Mean Absorbance (570 nM) ± S.E., Overall Mean", "setting": "MDA-MB-231 cells; MDA-MB-231, day 3, 10.0 μg/ml", "result": "0.504 ± 0.021"}, {"measurement": "Mean Absorbance (570 nM) ± S.E.", "setting": "MDA-MB-231 cells; [1]", "result": "0.456 ± 0.048 and 0.499 ± 0.018 and 0.502 ± 0.048 and 0.559 ± 0.041"}, {"measurement": "Mean Absorbance (570 nM) ± S.E., Overall Mean", "setting": "MDA-MB-231 cells; MDA-MB-231, day 3, 100 μg/ml", "result": "0.302 ± 0.043"}, {"measurement": "Mean Absorbance (570 nM) ± S.E.", "setting": "MDA-MB-231 cells; [2]", "result": "0.255 ± 0.005 and 0.357 ± 0.019 and 0.308 ± 0.021 and 0.287 ± 0.021"}, {"measurement": "Mean Absorbance (570 nM) ± S.E.", "setting": "MDA-MB-231 cells; [3]", "result": "0.666 ± 0.022"}, {"measurement": "Mean Absorbance (570 nM) ± S.E., Overall Mean", "setting": "MDA-MB-231 cells; MDA-MB-231, day 5, 10.0 μg/ml", "result": "0.688 ± 0.131"}, {"measurement": "Mean Absorbance (570 nM) ± S.E., Overall Mean", "setting": "MDA-MB-231 cells; MDA-MB-231, day 5, 100 μg/ml", "result": "0.475 ± 0.0690"}]}, {"molecule": "H.VHH14: anti-STAT3 sdAb VHH14, SEQ ID NO. 4; H. not defined, presumably mammalian production (protein, Camelid) VHH: QVQLVESGGGSVQAGGSLRLSCVASTYTGCMGWFRQAPGKEREGVAALSSRGFAGHYTDSVKGRFSISRDYVKNAVYLQMNTVKPEDAAMYYCAAREGWECGETWLDRTAGGHTYWGQGTLVTVSS", "values": [{"measurement": "% Inhibition", "setting": "MDA-MB-231 cells; MDA-MB-231, 5 days, 0.5 μg/ml", "result": 9.5, "unit": "%"}, {"measurement": "% Inhibition", "setting": "MDA-MB-231 cells; MDA-MB-231, 5 days, 1.0 μg/ml", "result": 4.9, "unit": "%"}, {"measurement": "% Inhibition", "setting": "MDA-MB-231 cells; MDA-MB-231, 5 days, 10.0 μg/ml, single experiments", "result": 18.2, "unit": "%"}, {"measurement": "% Inhibition", "setting": "MDA-MB-231 cells; MDA-MB-231, 5 days, 100 μg/ml, single experiments", "result": 18.9, "unit": "%"}, {"measurement": "Mean Absorbance (570 nM) ± S.E.", "setting": "MDA-MB-231 cells; [1]", "result": "0.588 ± 0.020"}, {"measurement": "Mean Absorbance (570 nM) ± S.E.", "setting": "MDA-MB-231 cells; [2]", "result": "0.416 ± 0.030"}, {"measurement": "Mean Absorbance (570 nM) ± S.E.", "setting": "MDA-MB-231 cells; [3]", "result": "0.485 ± 0.040"}, {"measurement": "Mean Absorbance (570 nM) ± S.E.", "setting": "MDA-MB-231 cells; MDA-MB-231, day 5, 10.0 μg/ml, single experiments", "result": "0.804 ± 0.015"}, {"measurement": "Mean Absorbance (570 nM) ± S.E.", "setting": "MDA-MB-231 cells; MDA-MB-231, day 5, 100 μg/ml, single experiments", "result": "0.797 ± 0.010"}, {"measurement": "Mean Absorbance (570 nM) ± S.E., Overall Mean", "setting": "PANC-1 cells; PANC-1, day 3, 10.0 μg/ml", "result": "1.089 ± 0.085"}, {"measurement": "Mean Absorbance (570 nM) ± S.E.", "setting": "PANC-1 cells; PANC-1, day 3, 10.0 μg/ml", "result": "0.920 ± 0.133 and 1.183 ± 0.114 and 1.163 ± 0.044"}, {"measurement": "Mean Absorbance (570 nM) ± S.E., Overall Mean", "setting": "PANC-1 cells; PANC-1, day 3, 100 μg/ml", "result": "0.906 ± 0.054"}, {"measurement": "Mean Absorbance (570 nM) ± S.E.", "setting": "PANC-1 cells; PANC-1, day 3, 100 μg/ml", "result": "0.808 ± 0.239 and 0.993 ± 0.088 and 0.916 ± 0.088"}, {"measurement": "Mean Absorbance (570 nM) ± S.E., Overall Mean", "setting": "PANC-1 cells; PANC-1, day 5, 10.0 μg/ml", "result": "1.368 ± 0.247"}, {"measurement": "Mean Absorbance (570 nM) ± S.E.", "setting": "PANC-1 cells; PANC-1, day 5, 10.0 μg/ml", "result": "1.859 ± 0.033 and 1.165 ± 0.015 and 1.081 ± 0.103"}, {"measurement": "Mean Absorbance (570 nM) ± S.E., Overall Mean", "setting": "PANC-1 cells; PANC-1, day 5, 100 μg/ml", "result": "0.754 ± 0.333"}]}, {"molecule": "anti-TNF-alpha VHH69: anti-TNF-alpha sdAb, SEQ ID NO. 46 (TNF_69, SEQ ID NO. 64) (protein, Camelid) VHH: EVQLVESGGGSVLAGGSLRLSCVASGFTSRYNYMAWFRQAPGKEREGVATIGTASGSADYYGSVKDRFTISQDNAKNTVYLQMNSLKPEDTAMYYCAARTYGTISLTPSDYRYWGQGTLVTVSS", "values": [{"measurement": "inhibition of killing of U937 by TNF-alpha", "setting": "TNF-alpha", "result": "inhibit killing"}]}]}
